The values below come from patent US20230357447A1 (JANUX THERAPEUTICS, published 2023).

In assay [1] the target is T1, Ab-12, anti-PD-L1xCD28 non-masked antibody in Vh format.
T1 construct: also called PDL1xCD28 non-masked (Vh)
Briefly: competition ELISA: peptide titrated against 5 nM Ab-12; binding of Ab-12 to captured biotinylated CD28 antigen is read. For orientation: In an ELISA, binding on a coated surface is turned into a signal by an enzyme label.

In assay [2] the target is T1, Ab-12, anti-PD-L1xCD28 non-masked …. The assay is described as above. The source holds these as a separate data set.
Assay [3] concerns the target T2, anti-CD28 scFv (SEQ ID NO: 9).
T2 construct: also called Anti-CD28 scFv (VH-linker 1-VL)
Briefly: competition ELISA: peptide titrated against 2 nM anti-CD28 scFv; binding of the scFv to captured biotinylated CD28 antigen is read; table prints 'IC50 nM' but the axis is Log [Peptide, uM]; no fall of the signal.

Assay [4] concerns the target Anti-CD28 scFv (VH-linker 1-VL). Briefly: phage ELISA: biotinylated anti-CD28 scFv on neutravidin plate, clonal phage supernatant, anti-M13-HRP.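 Further: before phage addition, wells were preincubated either with soluble CD28 protein in blocking buffer or with blocking buffer only.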
For assay [5] the target is unchanged. Briefly: phage ELISA: biotinylated anti-CD28 scFv on neutravidin plate, clonal phage supernatant, anti-M13-HRP; wells pre-incubated with soluble CD28 (competitor).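 Further: wells pretreated with soluble CD28 protein in blocking buffer before phage addition, no wash in between, reference wells got blocking buffer only, bound phage detected after washing.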
Assay [6] addresses T1, Ab-12, anti-PD-L1xCD28 non-masked …. Briefly: competition ELISA: peptide titrated against 5 nM Ab-12; binding of Ab-12 to captured biotinylated CD28 antigen is read; table prints 'IC50 nM' but the axis is Log [Peptide, uM]; no fall of the signal.

Ends that are not written are not given here.

B1: Peptide-40 (peptide)
peptide: MDWCPRDLWSECFF
modifications: cysteine pairing not given here; also: biotinylated, site not given here
notes: Synthetic biotinylated peptide loaded on streptavidin biosensors
The IC50 is the concentration needed to halve the response being measured. For the molecule B1, in assay [1], the IC50 is 250 nM.

B2: Peptide-34 (peptide)
peptide: MNWCPKDIWYLCFN
modifications: cysteine pairing not given here; also: biotinylated, site not given here
notes: as for B1
B2 came in with an IC50 in assay [2] of 1410 nM.

In assay [3], SFCGLFLDLWICEF (cysteine pairing not given here; also: biotinylated, site not given here, biotinylated when captured on the plate) [Peptide-4] registered a 50% inhibitory concentration (IC50) of more than 100 nM.

B3: Peptide-39 (peptide)
peptide: MDWCPRDLWHLCFS
modifications: cysteine pairing not given here; also: biotinylated, site not given here
notes: as for B1
B3 yielded an IC50 in assay [2] of 480 nM.

With MVDCPLISFDECLA (Clonal phage from the Peptide-9 library) [Phage-449], in assay [4], the “Phage binding ELISA CD28 scFv signal” value worked out at 0.07. Besides, the “Phage binding ELISA CD28 scFv signal in presence of CD28” value in assay [5] came out at 0.076.

NCQPWYWNMFAFGC (cysteine pairing not given here; also: biotinylated, site not given here, biotinylated when captured on the plate) [Peptide-15] had an IC50 in assay [6] of more than 100 nM.

As to NCQPWYWNMIAFGC (cysteine pairing not given here; also: biotinylated, site not given here, biotinylated when captured on the plate) [Peptide-16], in assay [6], the IC50 is more than 100 nM.

Take EDWCPTDVWPYCFS (Clonal phage from the Peptide-9 library) [Phage-450]: the “Phage binding ELISA CD28 scFv signal” value in assay [4] was 0.711. Further, the “Phage binding ELISA CD28 scFv signal in presence of CD28” value in assay [5] came to 0.157.

WICDKSGSIMLCRA (cysteine pairing not given here; also: biotinylated, site not given here, biotinylated when captured on the plate) [Peptide-11] registered an IC50 in assay [6] of more than 100 nM.

B4: Peptide-31 (peptide)
peptide: MDWCPIDLWNECFF
modifications: cysteine pairing not given here; also: biotinylated, site not given here
notes: as for B1
Regarding B4, the 50% inhibitory concentration (IC50) in assay [2] stood at 1770 nM.

For YWYCSPSIVRCVLV (cysteine pairing not given here; also: biotinylated, site not given here, biotinylated when captured on the plate) [Peptide-1], the IC50 in assay [3] is more than 100 nM.

B5: Peptide-33 (peptide)
peptide: MDWCPIYLWSECFN
modifications: cysteine pairing not given here; also: biotinylated, site not given here
notes: as for B1
Consider B5, for which the IC50 in assay [2] came out at 160 nM.

B6: Peptide-5 (peptide)
peptide: DNCYVIWGFEWQCR
modifications: cysteine pairing not given here; also: biotinylated when captured on plate, site not given here
notes: biotinylated when captured on the plate
As for B6, the IC50 in assay [3] was more than 100 nM.

In assay [3], LICKSGSILILCAQ (cysteine pairing not given here; also: biotinylated, site not given here, biotinylated when captured on the plate) [Peptide-2] gave an IC50 of more than 100 nM.

In assay [6], IDCIMVHMVKPWCF (cysteine pairing not given here; also: biotinylated, site not given here, biotinylated when captured on the plate) [Peptide-14] registered a half-inhibitory concentration (IC50) of more than 100 nM.

B7: Peptide-42 (peptide)
peptide: MDWCPRDMWDECFA
modifications: cysteine pairing not given here; also: biotinylated, site not given here
notes: as for B1
Consider B7, for which the IC50 in assay [1] was found to be 440 nM.

B8: Peptide-43 (peptide)
peptide: MDWCPRDMWSECFA
modifications: cysteine pairing not given here; also: biotinylated, site not given here
notes: as for B1
In turn, B8 returned an IC50 in assay [1] of 240 nM.

B9: Peptide-41 (peptide)
peptide: MDWCPRDLWVHCFA
modifications: cysteine pairing not given here; also: biotinylated, site not given here
notes: as for B1
Consider B9, for which the IC50 in assay [1] turned out to be 150 nM.

In assay [6], DNCHYIWGFEWQCG (cysteine pairing not given here; also: biotinylated, site not given here, biotinylated when captured on the plate) [Peptide-13] gave an IC50 of more than 100 nM.

B10: Peptide-37 (peptide)
peptide: MDWCPRDLWDLCFA
modifications: cysteine pairing not given here; also: biotinylated, site not given here
notes: as for B1
In turn, B10 had a half-maximal inhibitory concentration (IC50) in assay [2] of 1110 nM.

As to MDWCPSDYWYVCFA (Clonal phage from the Peptide-9 library) [Phage-453], the “Phage binding ELISA CD28 scFv signal” value in assay [4] came to 0.707. The “Phage binding ELISA CD28 scFv signal in presence of CD28” value in assay [5] stood at 0.08.

B11: Peptide-44 (peptide)
peptide: MDWCPRDMWSVCFS
modifications: cysteine pairing not given here; also: biotinylated, site not given here
notes: as for B1
In the case of B11, the IC50 in assay [1] was 940 nM.

B12: Peptide-48 (peptide)
peptide: MDWCPRYLWHVCFA
modifications: cysteine pairing not given here; also: biotinylated, site not given here
notes: as for B1
As to B12, the concentration for half-maximal inhibition (IC50) in assay [1] was 790 nM.

B13: Peptide-35 (peptide)
peptide: MDWCPLHMWHECFS
modifications: cysteine pairing not given here; also: biotinylated, site not given here
notes: as for B1
Take B13: the half-maximal inhibitory concentration (IC50) in assay [2] is 1270 nM.

For the molecule CFYAEYYDQVYSFC (cysteine pairing not given here; also: biotinylated, site not given here, biotinylated when captured on the plate) [Peptide-18], in assay [6], the IC50 is more than 100 nM.

GQHCATSMWRYCMF (cysteine pairing not given here; also: biotinylated, site not given here, biotinylated when captured on the plate) [Peptide-10] registered an IC50 in assay [6] of more than 100 nM.

B14: Peptide-45 (peptide)
peptide: MDWCPRFMWDECFN
modifications: cysteine pairing not given here; also: biotinylated, site not given here
notes: as for B1
With B14, the IC50 in assay [1] stood at 370 nM.

B15: Peptide-36 (peptide)
peptide: MDWCPLYLWNECFN
modifications: cysteine pairing not given here; also: biotinylated, site not given here
notes: as for B1
The molecule B15 showed an IC50 in assay [2] of 400 nM.

B16: Peptide-38 (peptide)
peptide: MDWCPRDLWHECFA
modifications: cysteine pairing not given here; also: biotinylated, site not given here
notes: as for B1
Take B16: the IC50 in assay [2] worked out at 350 nM.

B17: Peptide-47 (peptide)
peptide: MDWCPRSLWHECFA
modifications: cysteine pairing not given here; also: biotinylated, site not given here
notes: as for B1
B17 had an IC50 in assay [1] of 450 nM.

B18: Peptide-32 (peptide)
peptide: MDWCPIHLWHVCFN
modifications: cysteine pairing not given here; also: biotinylated, site not given here
notes: as for B1
As for B18, the IC50 in assay [2] is 970 nM.

As for GCFTWSQRTFPFTC (cysteine pairing not given here; also: biotinylated, site not given here, biotinylated when captured on the plate) [Peptide-17], the IC50 in assay [6] is more than 100 nM.

SPCGLFQWMEICEF (cysteine pairing not given here; also: biotinylated, site not given here, biotinylated when captured on the plate) [Peptide-3] had an IC50 in assay [3] of more than 100 nM.

B19: Peptide-46 (peptide)
peptide: MDWCPRHMWNYCFA
modifications: cysteine pairing not given here; also: biotinylated, site not given here
notes: as for B1
In turn, B19 showed a concentration for half-maximal inhibition (IC50) in assay [1] of 240 nM.

For MDWCPRDWWHMCFN (Clonal phage from the Peptide-9 library) [Phage-452], in assay [4], the “Phage binding ELISA CD28 scFv signal” value was determined as 2.12. Further, in assay [5], the “Phage binding ELISA CD28 scFv signal in presence of CD28” value was 0.243.

As to MDWCPRFWWHECYA (Clonal phage from the Peptide-9 library) [Phage-451], the “Phage binding ELISA CD28 scFv signal” value in assay [4] was 2.4. For the same molecule, the “Phage binding ELISA CD28 scFv signal in presence of CD28” value in assay [5] stood at 0.503.
